What was measured:
[1] = target: CD3 on cells (PBMC, primary patient samples); experiment: flow cytometry on a primary patient sample, control panel: CD3-V450 staining is kept (reference for the bionic panel)
[2] = target: CD3 on cells (PBMC, primary patient samples); experiment: flow cytometry, PBMC treated with C-IgG, dot plot CD38-PE against CD3-V450; reference panel for the treated samples; unstained panel: CD3 0%

Substance: non-binding IgG antibody
- % CD3-V450 stained cells (control panel) [1]: 25%
- CD3 (% of PBMC in the CD3-V450 positive, CD38-PE negative quadrant) [2]: 25%

From patent US20260008864A1
